Biological target: T1, Fur (ferric uptake regulator) (Escherichia coli (strain of the fur …, UniProt P0A9A9 1-148))
T1 sequence: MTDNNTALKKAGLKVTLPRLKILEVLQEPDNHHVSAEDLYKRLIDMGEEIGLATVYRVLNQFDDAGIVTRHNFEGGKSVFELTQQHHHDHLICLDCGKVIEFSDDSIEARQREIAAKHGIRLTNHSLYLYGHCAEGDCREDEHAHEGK
Assay: EMSA; dimer and tetramer complexes; EMSA as in cited ref 52, binding buffer not given; annealing buffer 10 mM Tris-HCl, 50 mM NaCl, 1 mM EDTA
Settings: protein: recombinant; tags: IMPACT system (intein tag, self-cleaved; no residual tag stated); chain copies: 4; label: Cy3 at 3' end of S3 as printed; blunt

B1: fecIR Fur box, E. coli 83972 (dsDNA)
DNA 1: TCCAATTGTAATGATAACCATTCTCATATTAATATGACTACGTGA
DNA 2: TCACGTAGTCATATTAATATGAGAATGGTTATCATTACAATTGGA
B1: binds.

From publication PMC2928814, “Host Imprints on Bacterial Genomes—Rapid, Divergent Evolution in Individual Patients”
